Biological target: β-casein
Details: scale: % of the protease activity of natural Hin47 protein

Hin47 Ser-197->alanine analog (enzyme) showed a Protease activity (digestion of β-casein, SDS-PAGE) of under 10.

Reference: patent US6114125
